doi:10.1101/2024.10.10.617581

Molecular target: Ib, membrane-binding component of the Iota toxin from Clostridium perfringens (N-terminal cleaved, active) (Clostridium perfringens)
Experiment: cryo-EM structure

## Ib, membrane-binding component of the Iota toxin from Clostridium perfringens (N-terminal cleaved, active) (natural protein)
  stoichiometry N: 7
